Laboratory results published in PMC7822592, “The half-life of the bone-derived hormone osteocalcin is regulated through O-glycosylation in mice, but not in humans” (eLife, 2020).
No end group written: not given here. O‑glycan = not defined here

Assay: In vivo half-life assay, serum OCN after intraperitoneal injection in Bglap-/- mice
Parameters: species or system mouse
Conditions: 40 ng/g i.p.; for serum OCN: ELISA; for in vivo half-life: estimated from declining phase after maximum at 30 min, serum ELISA
Procedure: For in vivo half-life assay, Bglap-/- male mice were injected intraperitoneally with 40 or 80 ng/g of body weight of mouse O-glycosylated ucOCN or non-glycosylated ucOCN, serum OCN level was analyzed at indicated time points using total mouse OCN ELISA. In all ex vivo and in vivo studies, mouse or human proteins were prepared in saline solution (0.9% NaCl) containing BSA (35 mg/ml) as a carrier.

O-gly ucOCN: O-glycosylated uncarboxylated mouse osteocalcin produced and purified from HEK293 as Fc fusion, released by thrombin (YLGASVPS(O‑glycan)PDPLEPTREQCELNPACDELSDQYGLKTAYKRIYGITI; ends and bridges not checked; also: O-glycosylated (HexNAc, Hex, NANA); UniProt P86546 50-95, looked up)
serum OCN (Bglap-/- male mice fasted 16 hr, 15 min, mouse 1): 24.4 ng/mL | serum OCN (Bglap-/- male mice fasted 16 hr, 15 min, mouse 2): 19.4 ng/mL | serum OCN (Bglap-/- male mice fasted 16 hr, 15 min, mouse 3): 16.3 ng/mL | serum OCN (Bglap-/- male mice fasted 16 hr, 15 min, mouse 4): 21.1 ng/mL | serum OCN (Bglap-/- male mice fasted 16 hr, 15 min, mouse 5): 17.9 ng/mL | serum OCN (Bglap-/- male mice fasted 16 hr, 30 min, mouse 1): 30.7 ng/mL | serum OCN (Bglap-/- male mice fasted 16 hr, 30 min, mouse 2): 26.9 ng/mL | serum OCN (Bglap-/- male mice fasted 16 hr, 30 min, mouse 3): 24.6 ng/mL | serum OCN (Bglap-/- male mice fasted 16 hr, 30 min, mouse 4): 23.6 ng/mL | serum OCN (Bglap-/- male mice fasted 16 hr, 30 min, mouse 5): 20.9 ng/mL | serum OCN (Bglap-/- male mice fasted 16 hr, 60 min, mouse 1): 27.5 ng/mL | serum OCN (Bglap-/- male mice fasted 16 hr, 60 min, mouse 2): 23.9 ng/mL | serum OCN (Bglap-/- male mice fasted 16 hr, 60 min, mouse 3): 23.9 ng/mL | serum OCN (Bglap-/- male mice fasted 16 hr, 60 min, mouse 4): 20.4 ng/mL | serum OCN (Bglap-/- male mice fasted 16 hr, 60 min, mouse 5): 19.0 ng/mL | serum OCN (Bglap-/- male mice fasted 16 hr, 90 min, mouse 1): 26.3 ng/mL | serum OCN (Bglap-/- male mice fasted 16 hr, 90 min, mouse 2): 20.0 ng/mL | serum OCN (Bglap-/- male mice fasted 16 hr, 90 min, mouse 3): 21.1 ng/mL | serum OCN (Bglap-/- male mice fasted 16 hr, 90 min, mouse 4): 17.6 ng/mL | serum OCN (Bglap-/- male mice fasted 16 hr, 90 min, mouse 5): 15.7 ng/mL | serum OCN (Bglap-/- male mice fasted 16 hr, 120 min, mouse 1): 21.6 ng/mL | serum OCN (Bglap-/- male mice fasted 16 hr, 120 min, mouse 2): 17.9 ng/mL | serum OCN (Bglap-/- male mice fasted 16 hr, 120 min, mouse 3): 18.4 ng/mL | serum OCN (Bglap-/- male mice fasted 16 hr, 120 min, mouse 4): 17.6 ng/mL | serum OCN (Bglap-/- male mice fasted 16 hr, 120 min, mouse 5): 15.6 ng/mL | in vivo half-life (Bglap-/- male mice fasted 16 hr): 182 min | in vivo half-life (Bglap-/- male mice fasted 16 hr, listed as O-glycosylated ucOCN): ~ 182 min | serum OCN (fed Bglap-/- male mice, 15 min, mouse 1): 46.2 ng/mL | serum OCN (fed Bglap-/- male mice, 15 min, mouse 2): 44.9 ng/mL | serum OCN (fed Bglap-/- male mice, 15 min, mouse 3): 53.1 ng/mL | serum OCN (fed Bglap-/- male mice, 15 min, mouse 4): 55.0 ng/mL | serum OCN (fed Bglap-/- male mice, 15 min, mouse 5): 58.1 ng/mL | serum OCN (fed Bglap-/- male mice, 15 min, mouse 6): 56.8 ng/mL | serum OCN (fed Bglap-/- male mice, 15 min, mouse 7): 44.9 ng/mL | serum OCN (fed Bglap-/- male mice, 15 min, mouse 8): 33.3 ng/mL | serum OCN (fed Bglap-/- male mice, 15 min, mouse 9): 33.3 ng/mL | serum OCN (fed Bglap-/- male mice, 15 min, mouse 10): 59.4 ng/mL | serum OCN (fed Bglap-/- male mice, 30 min, mouse 1): 51.1 ng/mL | serum OCN (fed Bglap-/- male mice, 30 min, mouse 2): 72.5 ng/mL | serum OCN (fed Bglap-/- male mice, 30 min, mouse 3): 64.1 ng/mL | serum OCN (fed Bglap-/- male mice, 30 min, mouse 4): 65.1 ng/mL | serum OCN (fed Bglap-/- male mice, 30 min, mouse 5): 69.7 ng/mL | serum OCN (fed Bglap-/- male mice, 30 min, mouse 6): 73.2 ng/mL | serum OCN (fed Bglap-/- male mice, 30 min, mouse 7): 40.4 ng/mL | serum OCN (fed Bglap-/- male mice, 30 min, mouse 8): 59.8 ng/mL | serum OCN (fed Bglap-/- male mice, 30 min, mouse 9): 47.5 ng/mL | serum OCN (fed Bglap-/- male mice, 30 min, mouse 10): 72.5 ng/mL | serum OCN (fed Bglap-/- male mice, 60 min, mouse 1): 25.1 ng/mL | serum OCN (fed Bglap-/- male mice, 60 min, mouse 2): 44.3 ng/mL | serum OCN (fed Bglap-/- male mice, 60 min, mouse 3): 31.5 ng/mL | serum OCN (fed Bglap-/- male mice, 60 min, mouse 4): 48.0 ng/mL | serum OCN (fed Bglap-/- male mice, 60 min, mouse 5): 45.3 ng/mL | serum OCN (fed Bglap-/- male mice, 60 min, mouse 6): 33.8 ng/mL | serum OCN (fed Bglap-/- male mice, 60 min, mouse 7): 15.4 ng/mL | serum OCN (fed Bglap-/- male mice, 60 min, mouse 8): 40.4 ng/mL | serum OCN (fed Bglap-/- male mice, 60 min, mouse 9): 23.7 ng/mL | serum OCN (fed Bglap-/- male mice, 60 min, mouse 10): 29.5 ng/mL | serum OCN (fed Bglap-/- male mice, 90 min, mouse 1): 11.0 ng/mL | serum OCN (fed Bglap-/- male mice, 90 min, mouse 2): 19.1 ng/mL | serum OCN (fed Bglap-/- male mice, 90 min, mouse 3): 10.0 ng/mL | serum OCN (fed Bglap-/- male mice, 90 min, mouse 4): 23.7 ng/mL | serum OCN (fed Bglap-/- male mice, 90 min, mouse 5): 20.1 ng/mL | serum OCN (fed Bglap-/- male mice, 90 min, mouse 6): 15.5 ng/mL | serum OCN (fed Bglap-/- male mice, 90 min, mouse 7): 7.2 ng/mL | serum OCN (fed Bglap-/- male mice, 90 min, mouse 8): 19.6 ng/mL | serum OCN (fed Bglap-/- male mice, 90 min, mouse 9): 11.8 ng/mL | serum OCN (fed Bglap-/- male mice, 90 min, mouse 10): 11.4 ng/mL | serum OCN (fed Bglap-/- male mice, 120 min, mouse 1): 5.5 ng/mL | serum OCN (fed Bglap-/- male mice, 120 min, mouse 2): 9.5 ng/mL | serum OCN (fed Bglap-/- male mice, 120 min, mouse 3): 4.6 ng/mL | serum OCN (fed Bglap-/- male mice, 120 min, mouse 4): 13.3 ng/mL
